For orientation: Kd means a measure of binding affinity in units of concentration. Usually koff stands for the rate constant with which the complex falls apart. As usually defined, the kon is the second-order rate constant of association.

The target in test [1] is T1, CEACAM1-HIS (Sino Biologics Inc.) (Homo sapiens (Human), UniProt P13688 35-428).
T1 construct: bought; not shown: His tag
T1 sequence: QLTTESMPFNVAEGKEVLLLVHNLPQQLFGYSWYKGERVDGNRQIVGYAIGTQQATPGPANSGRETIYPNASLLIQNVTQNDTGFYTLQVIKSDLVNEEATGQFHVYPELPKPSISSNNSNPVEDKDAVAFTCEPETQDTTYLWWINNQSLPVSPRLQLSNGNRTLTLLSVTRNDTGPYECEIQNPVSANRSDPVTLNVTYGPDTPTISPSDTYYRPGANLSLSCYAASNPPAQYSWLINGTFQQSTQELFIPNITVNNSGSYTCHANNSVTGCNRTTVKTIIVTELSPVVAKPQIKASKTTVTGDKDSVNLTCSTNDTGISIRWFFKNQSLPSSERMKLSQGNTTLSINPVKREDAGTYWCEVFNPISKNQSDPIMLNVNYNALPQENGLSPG
The test is described as follows: SPR multi-cycle.

In test [2] the target is T2, human GST-CEACAM1 (human, UniProt P13688 35-141, limits assumed).
T2 construct: printed both as GST-CEACAM1 and CEACAM1-GST; also called human CEACAM1-GST protein; hCEACAM1-GST; not shown: GST tag
T2 sequence: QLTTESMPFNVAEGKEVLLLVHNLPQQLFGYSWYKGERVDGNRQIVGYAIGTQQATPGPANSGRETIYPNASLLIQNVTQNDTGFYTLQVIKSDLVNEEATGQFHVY
The test is described as follows: competition ELISA vs murine parent antibody. On the procedure: The binding of the purified chimeric antibody to human CEACAM1 was assessed in a competition ELISA assay. Nunc Immuno MaxiSorp 96 well flat bottom microtitre plates were pre-coated with 1 μg/ml human GST-CEACAM1 in 1×PBS, overnight at 4° C. The following day the plates were blocked for 1 hour at room temperature with 2% BSA/PBS before washing 2× with PBS/0.05% Tween 20 pH 7.4.
The binding of the purified antibodies to human CEACAM1 were assessed in a competition ELISA assay as described above. The ability of each variant to compete against the murine parental antibody for binding to the GST-CEACAM1 was compared to that of the chimeric antibody (VH0/Vκ0), which was included on each plate.
(In an ELISA, binding on a coated surface is turned into a signal by an enzyme label.)

In test [3] the target is T1, CEACAM1-HIS (Sino Biologics Inc.). The test is described as follows: SPR single-cycle, IgG on Protein A. The procedure:
(§1) As an alternative approach to assess the binding of the antibody combinations and the control antibodies to CEACAM1, a kinetic analysis was performed on a Biacore T200 running Biacore T200 Evaluation Software V2.0.1. All experiments were run at 25° C. with HBS-P+ running buffer (pH 7.4).
In order to assess the binding of all Composite Human Antibody™ variants, single cycle kinetic analysis was performed on the supernatants of all the transiently transfected HEK EBNA cells. Purified chimeric antibody and purified chimeric antibody spiked into HEK EBNA media were used as positive controls. Supernatants were diluted in HBS-P+ to a concentration of 1 μg/mL (as determined by an IgG quantitation ELISA). At the start of each cycle, antibodies were loaded onto Fc2, Fc3 and Fc4 of a Protein A chip and captured at a flow rate of 8 μL/min to give an RU of ˜100. The surface was then allowed to stabilize. Single cycle kinetic data was obtained at a flow rate of […] to minimize any potential mass transfer effects. Multiple repeats of the chimeric antibody were performed to check the stability of the surface and analyte over the kinetic cycles. The signal from the reference channel Fc1 (no antibody) was subtracted from that of Fc2, Fc3 and Fc4 to correct for differences in non-specific binding to a reference surface. A 5 point 2-fold dilution range from 3.125 to 50 nM CEACAM1 without regeneration between each concentration was used. The association phase for the 5 injections of increasing concentrations of CEACAM1 was monitored for 150 seconds and a single dissociation phase was measured for 150 seconds following the last injection of CEACAM1. Regeneration of the Protein A was conducted using 2 injections of 10 mM glycine-HCL pH 1.5 followed by a stabilization period of 500 seconds.
In the raw sensorgrams for the single cycle kinetics, the signal from each antibody blank run (no CEACAM1) was subtracted to correct for differences in surface stability.

Test [4] has the same target. In words: SPR multi-cycle, IgG on Protein A. The procedure: as §1
For multi-cycle kinetic analysis purified antibody was immobilized at a protein concentration of 1 μg/mL in HBS-P+. At the start of each cycle, antibody was captured on Protein A to give an RU of ˜100 and the surface allowed to stabilize. Kinetic data was obtained at a flow rate of 35 μl/min to minimize any potential mass transfer effects. Multiple repeats of the blank (no CEACAM1) and a repeat of a single concentration of the analyte were programmed into the kinetic run in order to check the stability of both the surface and analyte over the kinetic cycles. For kinetic analysis, a 2-fold dilution series was selected from 100 to 1.5625 nM CEACAM1. The association phase of CEACAM1 was monitored initially for 180 seconds. In the subsequent experiment a longer association time (275 seconds) was used in order to better reach steady state. The dissociation phase was measured for 250 seconds. Regeneration of the Protein A surface was conducted using 2 injections of 10 mM glycine-HCL pH 1.5 at the end of each cycle.
The signal from the reference channel Fc1 was subtracted from that of Fc2, Fc3 and Fc4 to correct for differences in non-specific binding to a reference surface, a global Rmax parameter was used in the 1-to-1 binding model. The relative KD compared to the chimeric parental antibody was calculated by dividing the KD of the Composite Human Antibody™ variants by that of the chimeric parental antibody on the same chip.

B1: VH1/Vκ1 (antibody, V domains shown)
VH: EVQLLESGGGLVQPGGSLRLSCAASGFIFSSHGMSWVRQAPGKGLEWVATISSGGTYTYYPDSVKGRFTISRDNSKNTLYLQMNSLKAEDTAMYYCARHDFDYDAAWFAYWGQGTLVTVSS
VL: QIVLTQSPALLSLSPGERATMSCSANSSVSYMYWYRQKPGQAPKPWIYLTSNLASGVPARFSGSGSGTDYTLTISSLEAEDFATYYCQQWSSNPPTFGQGTKLEIK
Take B1: in test [1], the “average relative KD to chimeric parental antibody” value (“average relative KD” for short) worked out at 1.45 ratio, the “relative KD to chimeric parental antibody expt 1” value was determined as 1.5 ratio and the “relative KD to chimeric parental antibody expt 2” value was found to be 1.4 ratio. The “average relative IC50 (normalized to chimeric antibody)” value in test [2] was determined as 1.5 ratio. Also, in test [3], the Kd was found to be 93.4 nM and the “relative KD to chimeric parental antibody” value was 2.2 ratio. In test [4], the Kd was determined as 38.1 nM, the koff was found to be 0.00384 s⁻¹, the kon is 101000 M⁻¹ s⁻¹ and the “relative KD to chimeric parental antibody” value is 1.4 ratio.

B2: VH2/Vκ2 (antibody, V domains shown)
VH: EVQLLESGGGLVQPGGSLRLSCAASGFIFSSHGMSWVRQAPGKGLEWVATISSGGTYTYYPDSVKGRFTISRDNSKNTLYLQMNSLRAEDTAMYYCARHDFDYDAAWFAYWGQGTLVTVSS
VL: EIVLTQSPATLSLSPGERATLSCRANSSVSYMYWYQQKPGQAPRPWIYLTSNRATGVPARFSGSGSGTDYTLTISSLEPEDFATYYCQQWSSNPPTFGQGTKLEIK
As for B2, in test [1], the “average relative KD” value turned out to be 1.27 ratio, the “relative KD to chimeric parental antibody expt 1” value came out at 1.29 ratio and the “relative KD to chimeric parental antibody expt 2” value worked out at 1.25 ratio. Further, the “average relative IC50 (normalized to chimeric antibody)” value in test [2] amounted to 1.6 ratio. Further, in test [3], the Kd stood at 138 nM and the “relative KD to chimeric parental antibody” value was found to be 3.2 ratio. For the same molecule, in test [4], the Kd stood at 27.8 nM, the koff came to 0.00496 s⁻¹, the kon came to 179000 M⁻¹ s⁻¹ and the “relative KD to chimeric parental antibody” value is 1.25 ratio.

B3: VH1/Vκ2 (antibody, V domains shown)
VH: EVQLLESGGGLVQPGGSLRLSCAASGFIFSSHGMSWVRQAPGKGLEWVATISSGGTYTYYPDSVKGRFTISRDNSKNTLYLQMNSLKAEDTAMYYCARHDFDYDAAWFAYWGQGTLVTVSS
VL: EIVLTQSPATLSLSPGERATLSCRANSSVSYMYWYQQKPGQAPRPWIYLTSNRATGVPARFSGSGSGTDYTLTISSLEPEDFATYYCQQWSSNPPTFGQGTKLEIK
On to B3, for which, in test [1], the “average relative KD” value was found to be 1.46 ratio, the “relative KD to chimeric parental antibody expt 1” value came out at 1.66 ratio and the “relative KD to chimeric parental antibody expt 2” value is 1.27 ratio. Also, the “average relative IC50 (normalized to chimeric antibody)” value in test [2] is 1.3 ratio. For the same molecule, in test [3], the Kd is 148 nM and the “relative KD to chimeric parental antibody” value is 3.4 ratio. Moreover, in test [4], the Kd was determined as 28.3 nM, the koff was found to be 0.00551 s⁻¹, the kon is 195000 M⁻¹ s⁻¹ and the “relative KD to chimeric parental antibody” value stood at 1.27 ratio.

B4: VH2/Vκ1 (antibody, V domains shown)
VH: EVQLLESGGGLVQPGGSLRLSCAASGFIFSSHGMSWVRQAPGKGLEWVATISSGGTYTYYPDSVKGRFTISRDNSKNTLYLQMNSLRAEDTAMYYCARHDFDYDAAWFAYWGQGTLVTVSS
VL: QIVLTQSPALLSLSPGERATMSCSANSSVSYMYWYRQKPGQAPKPWIYLTSNLASGVPARFSGSGSGTDYTLTISSLEAEDFATYYCQQWSSNPPTFGQGTKLEIK
For B4, in test [1], the “average relative KD” value was 1.31 ratio, the “relative KD to chimeric parental antibody expt 1” value turned out to be 1.39 ratio and the “relative KD to chimeric parental antibody expt 2” value was 1.22 ratio. Also, the “average relative IC50 (normalized to chimeric antibody)” value in test [2] was 1.7 ratio. In test [3], the Kd amounted to 180 nM and the “relative KD to chimeric parental antibody” value turned out to be 4.2 ratio. In addition, in test [4], the Kd worked out at 33.3 nM, the koff was 0.0052 s⁻¹, the kon is 156000 M⁻¹ s⁻¹ and the “relative KD to chimeric parental antibody” value worked out at 1.22 ratio.

The values above are taken from patent US20250388666A1 (BRIGHAM AND WOMEN S HOSPITAL, published 2025).
